The record followed here is PMC10213618 (Frontiers in Immunology, 2023).

Assay [1] concerns the target T1, IL-17A (UniProt Q16552 24-155). Kind of assay: cell-based or functional assay.
Assay [2] deals with T1, IL-17A. Description: SPR; IL-17A amine-coupled to a CM5 chip (110-270 RU); chimeric peptides 1000 nM to 15.5 nM flowed in HBS-EP+; steady state fitting. As to conditions: both partners purified. (Surface plasmon resonance follows binding to a sensor surface in real time, without labels.)
A further assay addresses T2, mouse serum albumin (mouse, UniProt P07724 25-608).
T2 construct: mouse serum albumin; also called MSA
Description: SPR; HSA or MSA amine-coupled to a CM5 chip (110-270 RU); peptides 1000 nM to 15.5 nM flowed in HBS-EP+; multi-cycle kinetics, 1:1 binding model. To be noted: both partners purified.

A further assay addresses T3, human TNFα (Homo sapiens, UniProt P01375).
T3 construct: human tumour necrosis factor alpha, UniProt P01375
Kind of assay: SPR; Biacore 8K+, multi-cycle kinetics, 25°C; Fab captured by immobilised anti-human Fab antibodies; serial dilutions of TNFα injected in HBS-EP+; 1:1 binding model. To be noted: both partners purified.

Primed or numbered codes have the meaning given here. Where no end group is shown, it is not given here. [ ]: non-standard residue; d: D form. PEG2′ = diethylene glycolate linker

T3 sequence (P01375 whole entry): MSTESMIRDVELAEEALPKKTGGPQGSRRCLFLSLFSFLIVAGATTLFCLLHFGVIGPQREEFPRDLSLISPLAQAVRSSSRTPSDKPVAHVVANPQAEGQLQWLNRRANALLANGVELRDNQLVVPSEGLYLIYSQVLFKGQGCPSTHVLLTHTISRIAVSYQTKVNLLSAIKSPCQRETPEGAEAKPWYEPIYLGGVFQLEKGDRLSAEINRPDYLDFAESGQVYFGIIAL
T2 sequence (P07724 25-608): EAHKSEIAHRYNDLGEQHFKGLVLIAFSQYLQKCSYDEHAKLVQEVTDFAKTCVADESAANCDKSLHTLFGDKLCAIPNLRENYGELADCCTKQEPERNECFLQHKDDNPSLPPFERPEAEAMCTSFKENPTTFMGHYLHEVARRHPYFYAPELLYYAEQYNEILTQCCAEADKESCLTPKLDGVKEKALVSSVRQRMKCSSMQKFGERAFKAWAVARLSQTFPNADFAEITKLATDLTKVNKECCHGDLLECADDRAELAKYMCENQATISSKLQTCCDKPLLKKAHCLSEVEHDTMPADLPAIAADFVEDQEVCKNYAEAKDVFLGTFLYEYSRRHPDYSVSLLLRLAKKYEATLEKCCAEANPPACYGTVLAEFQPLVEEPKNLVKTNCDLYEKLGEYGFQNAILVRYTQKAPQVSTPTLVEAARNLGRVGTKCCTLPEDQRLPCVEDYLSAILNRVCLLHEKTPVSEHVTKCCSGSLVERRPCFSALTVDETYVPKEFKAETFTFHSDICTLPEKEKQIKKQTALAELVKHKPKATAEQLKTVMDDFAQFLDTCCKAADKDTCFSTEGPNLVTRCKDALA
T1 sequence (Q16552 24-155): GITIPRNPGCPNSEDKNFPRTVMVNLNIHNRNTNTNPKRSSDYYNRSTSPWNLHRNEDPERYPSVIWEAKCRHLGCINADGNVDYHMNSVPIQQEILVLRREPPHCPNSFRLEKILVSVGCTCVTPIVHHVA

B1: aMSA-HAP chimeric peptide (peptide)
chain: IHVTIPADLWDWINK[PEG2′]TCPDGQRDRGGCSGPYSCGGDNCCAYAAASVYRGYSCKDTYEW
modifications: disulfide (positions not given here); not fully specified
For B1, the “IC50 of inhibition of IL-6 release from human dermal fibroblasts stimulated with IL-17A and TNFα (blocks IL-17A with IL-17RA)” value with IL-17A [1] stood at 38 nM. In addition, the Kd (usually the constant that tells how readily two partners part at equilibrium) with IL-17A [2] worked out at 275 nM. In addition, in the assay with mouse serum albumin, the affinity, expressed as Kd, was 370 nM; the koff – broadly, a measure of how fast the partners let go of each other – stood at 0.00166 s⁻¹; the kon (usually the second-order rate constant of association) was determined as 4500 M⁻¹ s⁻¹.

B2: FabT (Fab, V domains shown)
VH: EVQLVESGGGLVKPGGSLRLSCAASGYTFTDNYIHWVRQAPGKGLEWIGYINPSSAYAHYNEKFKTRFTISVDKAKNSAYLQMNSLRAEDTAVYYCTRRYYSAMPFAYWGQGTLVTVSS
VL: DIQMTQSPSSLSASVGDRVTITCRASEDIYSGLAWYQQKPGKVPKLLIYDSSTLHTGVPSRFSGTGSGTDYTLTISSLQPEDVATYFCQQNYDFPLTFGQGTKLEIK
notes: humanised VH with human gamma1 CH1; humanised VL with human C kappa; also called parent FabT; unmodified FabT fragment; source: CHO-S XE, transient, purified (Protein G, SEC)
In the case of B2, in the assay with human TNFα, the affinity, expressed as Kd, was 0.221 nM; the koff turned out to be 9.9e-05 s⁻¹; the kon amounted to 447000 M⁻¹ s⁻¹.
